Results published in patent publication US20230192896A1 (published 2023).
Changes are numbered by the printed parent chain.

T1: FX zymogen (UniProt P00742 41-179; P00742 183-488)
T1 chain 1: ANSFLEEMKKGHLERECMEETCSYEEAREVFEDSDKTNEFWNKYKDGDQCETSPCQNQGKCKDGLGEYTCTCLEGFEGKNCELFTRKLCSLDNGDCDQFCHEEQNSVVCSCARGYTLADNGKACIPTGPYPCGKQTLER
T1 chain 2: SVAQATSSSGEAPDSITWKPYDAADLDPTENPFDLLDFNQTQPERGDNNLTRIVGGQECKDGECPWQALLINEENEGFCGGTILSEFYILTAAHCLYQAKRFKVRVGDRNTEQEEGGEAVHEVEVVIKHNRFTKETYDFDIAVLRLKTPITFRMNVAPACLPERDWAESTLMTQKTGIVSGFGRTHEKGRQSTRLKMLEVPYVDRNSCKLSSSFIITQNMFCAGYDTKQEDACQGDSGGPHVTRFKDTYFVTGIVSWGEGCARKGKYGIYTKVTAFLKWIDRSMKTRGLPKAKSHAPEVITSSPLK

B1: BIIB-12-928 (antibody, V domains shown)
VH: QVQLVEFGVGVVQPGRSLRLSCAASGFTFSSYGMHWVRQAPGKGLEWVAVISYDGSNKYYADSVKGRFTISRDNSKNTLYLQMNSLRAEDTAVYYCAKGGTYLDTWGQGTLVTVSS
VL: EIVLTQSPGTLSLSPGERATLSCRASQSVRSSYLAWYQQKPGQAPRLLIYGASSRATGIPDRFSGSGSGTDFTLTISRLEPEDFAVYYCQQYVRFPLTFGGGTKVEIK
B2: BIIB-12-920 (antibody, V domains shown)
VH: QVQLVQSGAEVKKPGASVKVSCKASGYTFTSYGISWVRQAPGQGLEWMGWISPYNGNTNYAQKLQGRVTMTTDTSTSTAYMELRSLRSDDTAVYYCARGSGHTTMFWGQGTLVTVSS
VL: EIVMTQSPATLSVSPGERATLSCRASQSVSSNLAWYQQKPGQAPRLLIYSASTRATGIPARFSGSGSGTEFTLTISSLQSEDFAVYYCQQANAYPPTFGGGTKVEI
B3: BIIB-12-1299 (antibody, V domains shown)
VH: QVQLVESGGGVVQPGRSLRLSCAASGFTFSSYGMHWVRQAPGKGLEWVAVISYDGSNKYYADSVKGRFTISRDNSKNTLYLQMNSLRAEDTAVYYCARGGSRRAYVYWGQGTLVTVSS
VL: EIVMTQSPATLSVSPGERATLSCRASQSVSSNLAWYQQKPGQAPRLLIYGASTRATGIPARFSGSGSGTEFTLTISSLQSEDFAVYYCQQLNNFPITFGGGTKVEIK
B4: BIIB-12-934 (antibody, V domains shown)
VH: QVQLVESGGGVVQPGRSLRLSCAASGFTFSSYGMHWVRQAPGKGLEWVAVISYDGSNKYYADSVKGRFTISRDNSKNTLYLQMNSLRAEDTAVYYCARESGGHSYGMDVWGQGTTVTVSS
VL: B2 VL with M4L, S50G, A91F, A93D, Y94H, P96I
B5: BIIB-12-1288 (antibody, V domains shown)
VH: QVQLVQSGAEVKKPGASVKVSCKASGYTFTSYYMHWVRQAPGQGLEWMGIINPSGGSTSYAQKFQGRVTMTRDTSTSTVYMELSSLRSEDTAVYYCARGGANDYGSSSRWWYFDLWGRGTLVTVSS
VL: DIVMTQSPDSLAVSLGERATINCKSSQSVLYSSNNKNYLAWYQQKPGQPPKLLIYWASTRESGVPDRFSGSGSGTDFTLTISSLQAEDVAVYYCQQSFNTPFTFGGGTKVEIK
B6: BIIB-12-1330 (antibody, V domains shown)
VH: QVQLVESGGGVVQPGRSLRLSCAASGFTFSSYGMHWVRQAPGKGLEWVAVISYDGSNKYYADSVKGRFTISRDNSKNTLYLQMNSLRAEDTAVYYCAKGGSARWINIWGQGTTVTVSS
VL: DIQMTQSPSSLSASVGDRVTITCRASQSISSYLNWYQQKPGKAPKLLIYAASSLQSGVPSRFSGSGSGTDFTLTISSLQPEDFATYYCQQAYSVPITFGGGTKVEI
B7: BIIB-12-1305 (antibody, V domains shown)
VH: QVQLVESGGGVVQPGRSLRLSCAASGFTFSSYGMHWVRQAPGKGLEWVAVISYDGSNKYYADSVKGRFTISRDNSKNTLYLQMNSLRAEDTAVYYCAKLGGRWSSDFQHWGQGTLVTVSS
VL: EIVLTQSPATLSLSPGERATLSCRASQSVSSYLAWYQQKPGQAPRLLIYDASNRATGIPARFSGSGSGTDFTLTISSLEPEDFAVYYCQQSANWPPTFGGGTKVEIK
B8: BIIB-12-1290 (antibody, V domains shown)
VH: QVQLVQSGAEVKKPGASVKVSCKASGYTFTSYYMHWVRQAPGQGLEWMGIINPGGGSTSYAQKFQGRVTMTRDTSTSTVYMELSSLRSEDTAVYYCAREGGRYVRGMDVWGQGTTVTVSS
VL: DIQMTQSPSSVSASVGDRVTITCRASQGISSWLAWYQQKPGKAPKLLIYAASSLQSGVPSRFSGSGSGTDFTLTISSLQPEDFATYYCQQGFSFPFTFGGGTKVEIK
B9: BIIB-12-1323 (antibody, V domains shown)
VH: QVQLVQSGAEVKKPGASVKVSCKASGYTFTSYYIHWVRQAPGQGLEWMGIINPSGGSTSYAQKFQGRVTMTRDTSTSTVYMELSSLRSEDTAVYYCARGRRFPRGLDYWGQGTLVTVSS
VL: B8 VL with G91A, F92N, S93I
B10: BIIB-12-1291 (antibody, V domains shown)
VH: QVQLVQSGAEVKKPGASVKVSCKASGYTFTSYYMHWVRQAPGQGLEWMGIINPSGGSTSYAQKFQGRVTMTRDTSTSTVYMELSSLRSEDTAVYYCARSRRMWVGYFDLWGRGTLVTVSS
VL: B7 VL with S91R, A92L, W94L, P96L
B11: BIIB-12-927 (antibody, V domains shown)
VH: QVQLVQSGAEVKKPGASVKVSCKASGYTFTSYYMSWVRQAPGQGLEWMGIINPSGGSTSYAQKFQGRVTMTRDTSTSTVYMELSSLRSEDTAVYYCARDSGRKRYYYMDVWGKGTTVTVSS
VL: B3 VL with L91F, N93L, F94W, I96F
B12: BIIB-12-900 (antibody, V domains shown)
VH: QVQLVQSGAEVKKPGASVKVSCKASGYTFTSYYMHWVRQAPGQGLEWMGIINPGGGSTSYAQKFQGRVTMTRDTSTSTVYMELSSLRSEDTAVYYCARSGGMYDRELGMDVWGQGTTVTVSS
VL: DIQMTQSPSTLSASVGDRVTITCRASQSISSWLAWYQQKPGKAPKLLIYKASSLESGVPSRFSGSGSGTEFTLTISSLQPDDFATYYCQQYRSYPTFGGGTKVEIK
B13: BIIB-9-1282 (antibody, V domains shown)
VH: QVQLVQSGAEVKKPGASVKVSCKASGYTFTSYYMVWVRQAPGQGLEWMGIINPSGGSTSYAQKFQGRVTMTRDTSTSTVYMELSSLRSEDTAVYYCARVPTYRYSYLAFDIWGQGTMVTVSS
VL: B3 VL with L91H, N93H, F94L
B14: BIIB-9-579 (antibody, V domains shown)
VH: QVQLVQSGAEVKKPGASVKVSCKASGYTFTSYYMVWVRQAPGQGLEWMGIINPSGGSTSYAQKFQGRVTMTRDTSTSTVYMELSSLRSEDTAVYYCARGPWYSYYYMDVWGKGTTVTVSS
VL: B8 VL with V11L, G28S, W32Y, A34N, A50G, G91A
B15: BIIB-9-1280 (antibody, V domains shown)
VH: B14 VH
VL: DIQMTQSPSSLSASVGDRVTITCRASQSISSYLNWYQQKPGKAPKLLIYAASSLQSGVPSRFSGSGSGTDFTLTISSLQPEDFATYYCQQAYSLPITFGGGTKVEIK
B16: BIIB-9-884 (antibody, V domains shown)
VH: QLQLQESGPGLVKPSETLSLTCTVSGGSISSSDYYWGWIRQPPGKGLEWIGSIYYSGSTYYNPSLKSRVTISVDTSKNQFSLKLSSVTAADTAVYYCARSPRHKVRGPNWFDPWGQGTLVTVSS
VL: B1 VL with R30S, V93H, R94L, F95L, L97P
B17: BIIB-9-469 (antibody, V domains shown)
VH: B11 VH with S35H, S100L, R102Y, K103G, Y105S, Y107D, M108F, V110L, K113R, T116L
VL: B3 VL with Y49F, L91S, I96F
B18: BIIB-9-882 (antibody, V domains shown)
VH: QVQLVQSGAEVKKPGASVKVSCKASGYTFTSYYMHWVRQAPGQGLEWMGIINPSGGSTSYAQKFQGRVTMTRDTSTSTVYMELSSLRSEDTAVYYCARGPTDSSGYLDMDVWGKGTTVTVSS
VL: B3 VL with Y49F, L91H, N92D, I96P
B19: BIIB-9-446 (antibody, V domains shown)
VH: QVQLVQSGAEVKKPGSSVKVSCKASGGTFSSYAISWVRQAPGQGLEWMGGIIPIFGTASYAQKFQGRVTITADESTSTAYMELSSLRSEDTAVYYCARGLEVGYYGYFDYWGQGTLVTVSS
VL: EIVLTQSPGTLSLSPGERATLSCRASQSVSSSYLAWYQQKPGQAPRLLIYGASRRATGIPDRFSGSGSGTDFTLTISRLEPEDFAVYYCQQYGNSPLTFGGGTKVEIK
B20: BIIB-9-625 (antibody, V domains shown)
VH: QLQLQESGPGLVKPSETLSLTCTVSGGSISSSSYAWGWIRQPPGKGLEWIGSIYYSGSTYYNPSLKSRVTISVDTSKNQFSLKLSSVTAADTAVYYCARDRGWYTEVLDIWGQGTMVTVSS
VL: B8 VL with V11L, G28S, W32Y, A34N, G91S, F92D, S93T, F94D, F96P
B21: BIIB-9-419 (antibody, V domains shown)
VH: QVQLVQSGAEVKKPGASVKVSCKASGYTFTSYYMHWVRQAPGQGLEWMGIINPSGGSTSYAQKFQGRVTMTRDTSTSTVYMELSSLRSEDTAVYYCAREPTFYASYFDLWGRGTLVTVS
VL: B7 VL with L4M, A51S, S91V, A92S, N93T, W94H, P96Y
B22: BIIB-9-627 (antibody, V domains shown)
VH: QVQLVQSGAEVKKPGASVKVSCKASGYTFTSYYMHWVRQAPGQGLEWMGIINPSGGSTSYAQKFQGRVTMTRDTSTSTVYMELSSLRSEDTAVYYCARADYDYWSGYGGLGMDVWGQGTTVTVSS
VL: not shown
B23: BIIB-9-1273 (antibody, V domains shown)
VH: QVQLVQSGAEVKKPGASVKVSCKASGYTFTSYYMHWVRQAPGQGLEWMGIINPSGGSTSYAQKFQGRVTMTRDTSTSTVYMELSSLRSEDTAVYYCARDTGGYAFDIWGQGTLVTVSS
VL: B7 VL with S7Y, W94F, P96F
B24: BIIB-9-616 (antibody, V domains shown)
VH: B23 VH with D99G, T100G, G101S, G102K, A104F, I107L, Q110R
VL: B3 VL with N32S, L91A, N92D, I96F

How the values were obtained:
FX zymogen = target: T1, FX zymogen; test: BLI
[1] = target: free FIXa (activated Factor IX) (UniProt P00740 47-191; P00740 227-461); test: BLI

Row | Binder | Kd (FX zymogen) [nM] | Kd [1] [nM]
1 | B1 | 23.1 | –
2 | B2 | 27.7 | –
3 | B3 | 50.8 | –
4 | B4 | 60.2 | –
5 | B5 | 85.6 | –
6 | B6 | 56.8 | –
7 | B7 | 38.8 | –
8 | B8 | 16.1 | –
9 | B9 | 38.6 | –
10 | B10 | 42.6 | –
11 | B11 | 26.6 | –
12 | B12 | 25.8 | –
13 | B13 | – | 43.9
14 | B14 | – | 11.3
15 | B15 | – | 51.7
16 | B16 | – | 1.79
17 | B17 | – | 13.3
18 | B18 | – | 2.31
19 | B19 | – | 17.5
20 | B20 | – | 11.3
21 | B21 | – | 21.1
22 | B22 | – | 233
23 | B23 | – | 20.9
24 | B24 | – | 16.8
